According to paper PMC12248025 (bioRxiv, 2025):
Several values for one entry are separate records, joined by “and”; a condition that tells them apart may be missing. Equal entries are not always repeated.

Target: the molecule itself
Assay: cryo-EM structure

B1: human IMPDH2 S160del (hIMPDH2-S160del) (enzyme)
chain: not shown
stoichiometry N: 4 and 8
